Laboratory results reported in paper PMC9482650, “Quantitative fragmentomics allow affinity mapping of interactomes” (Nature Communications, 2022).

T1: NHERF3_3, Q5T2W1
T1 sequence (Q5T2W1 238-333, limits assumed, looked up): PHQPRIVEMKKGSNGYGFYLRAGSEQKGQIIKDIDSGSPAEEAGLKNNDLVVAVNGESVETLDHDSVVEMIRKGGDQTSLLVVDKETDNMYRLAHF

T2: RHPN1, Q8TCX5
T2 sequence (Q8TCX5 508-602, limits assumed, looked up): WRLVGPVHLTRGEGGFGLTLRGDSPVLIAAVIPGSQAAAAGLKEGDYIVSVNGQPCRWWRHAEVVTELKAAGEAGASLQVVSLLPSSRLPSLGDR

T3: SYNJ2BP, P57105
T3 sequence (P57105 8-110, limits assumed, looked up): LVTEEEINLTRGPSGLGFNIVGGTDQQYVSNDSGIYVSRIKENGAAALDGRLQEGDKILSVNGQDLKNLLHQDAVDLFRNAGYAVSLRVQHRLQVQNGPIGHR

T4: PCLO, Q9Y6V0
T4 sequence (Q9Y6V0 4491-4600, limits assumed, looked up): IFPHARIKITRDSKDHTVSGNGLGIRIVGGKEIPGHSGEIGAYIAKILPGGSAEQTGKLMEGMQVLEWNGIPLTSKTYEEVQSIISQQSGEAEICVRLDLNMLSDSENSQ

T5: MPP7, Q5T2T1
T5 sequence (Q5T2T1 134-230, limits assumed, looked up): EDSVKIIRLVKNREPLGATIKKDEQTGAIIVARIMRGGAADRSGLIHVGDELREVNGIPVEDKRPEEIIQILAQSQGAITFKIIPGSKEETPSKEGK

T6: TX1BP3, O14907
T6 sequence (O14907 10-122, limits assumed, looked up): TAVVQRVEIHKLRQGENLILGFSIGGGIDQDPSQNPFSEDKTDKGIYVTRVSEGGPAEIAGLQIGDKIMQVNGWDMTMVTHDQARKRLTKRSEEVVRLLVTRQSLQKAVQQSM

T7: GRIP1_7, Q9Y3R0
T7 sequence (Q9Y3R0 999-1096, limits assumed, looked up): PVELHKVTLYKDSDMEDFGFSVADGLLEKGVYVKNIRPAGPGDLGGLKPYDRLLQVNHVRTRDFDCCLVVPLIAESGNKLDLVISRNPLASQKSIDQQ

T8: MPDZ_5, O75970
T8 sequence (O75970 695-796, limits assumed, looked up): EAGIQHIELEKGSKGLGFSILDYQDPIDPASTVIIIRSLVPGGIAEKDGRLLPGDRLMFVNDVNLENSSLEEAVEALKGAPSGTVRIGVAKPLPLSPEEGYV

T9: LRRC7, Q96NW7
T9 sequence (Q96NW7 1440-1537, limits assumed, looked up): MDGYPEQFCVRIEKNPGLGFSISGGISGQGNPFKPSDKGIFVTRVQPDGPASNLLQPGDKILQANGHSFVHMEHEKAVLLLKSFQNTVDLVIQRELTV

T10: GRIP1_3, Q9Y3R0
T10 sequence (Q9Y3R0 247-346, limits assumed, looked up): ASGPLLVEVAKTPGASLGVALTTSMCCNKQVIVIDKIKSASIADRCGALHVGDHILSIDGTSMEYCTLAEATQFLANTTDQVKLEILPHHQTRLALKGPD

T11: NHERF3_4, Q5T2W1
T11 sequence (Q5T2W1 373-468, limits assumed, looked up): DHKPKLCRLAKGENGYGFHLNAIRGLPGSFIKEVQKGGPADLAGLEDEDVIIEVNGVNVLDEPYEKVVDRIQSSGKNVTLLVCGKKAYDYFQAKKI

T12: SNTA1, Q13424
T12 sequence (Q13424 82-180, limits assumed, looked up): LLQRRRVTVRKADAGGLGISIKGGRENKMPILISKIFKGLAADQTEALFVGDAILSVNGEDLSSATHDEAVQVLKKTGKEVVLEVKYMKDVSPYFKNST


Legend:
Test in all cases: holdup assay
Parameters in all cases: key: below the threshold = too weak to quantify, mostly under pKd 3.1 to 4
Conditions in all cases: plain residues with an end cap or a label only (N-terminal biotin on a linker: ado-ado)
[1] = target: T1, NHERF3_3, Q5T2W1
[2] = target: MAGI2_4, Q86UL8
MAGI2_4, Q86UL8, sequence (Q86UL8 772-865): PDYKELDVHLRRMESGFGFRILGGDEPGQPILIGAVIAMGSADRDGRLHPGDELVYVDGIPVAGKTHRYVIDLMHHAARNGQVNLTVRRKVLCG

[3] = target: T2, RHPN1, Q8TCX5
[4] = target: MAGI2_3, Q86UL8
MAGI2_3, Q86UL8, sequence (Q86UL8 600-682): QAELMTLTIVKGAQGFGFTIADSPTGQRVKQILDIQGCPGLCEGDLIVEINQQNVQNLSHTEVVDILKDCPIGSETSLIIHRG

[5] = target: T3, SYNJ2BP, P57105
[6] = target: MAST1, Q9Y2H9
MAST1, Q9Y2H9, sequence (Q9Y2H9 962-1065): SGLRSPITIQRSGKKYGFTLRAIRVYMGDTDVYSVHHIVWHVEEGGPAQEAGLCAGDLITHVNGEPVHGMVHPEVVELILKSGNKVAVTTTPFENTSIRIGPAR

[7] = target: DLG2_3, Q15700
[8] = target: GRIP2_7, Q9C0E4
GRIP2_7, Q9C0E4, sequence (Q9C0E4 934-1023): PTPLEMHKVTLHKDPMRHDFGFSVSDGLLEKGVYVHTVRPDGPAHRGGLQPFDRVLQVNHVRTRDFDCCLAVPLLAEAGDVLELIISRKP

[9] = target: Inadl_5, Q8NI35
Inadl_5, Q8NI35, sequence (Q8NI35 673-780): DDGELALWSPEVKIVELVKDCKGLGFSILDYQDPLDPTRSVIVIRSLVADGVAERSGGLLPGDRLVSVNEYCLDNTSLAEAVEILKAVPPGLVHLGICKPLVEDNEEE

[10] = target: T4, PCLO, Q9Y6V0
[11] = target: LIMK2, P53671
LIMK2, P53671, sequence (P53671 143-248): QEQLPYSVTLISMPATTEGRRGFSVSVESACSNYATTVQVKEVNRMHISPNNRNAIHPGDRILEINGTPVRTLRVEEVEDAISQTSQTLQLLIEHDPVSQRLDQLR

[12] = target: DLG5_1, Q8TDM6
DLG5_1, Q8TDM6, sequence (Q8TDM6 617-713): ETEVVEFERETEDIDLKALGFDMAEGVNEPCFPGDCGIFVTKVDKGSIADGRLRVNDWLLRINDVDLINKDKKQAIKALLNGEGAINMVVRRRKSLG

[13] = target: GRID2IP_2, A4D2P6
GRID2IP_2, A4D2P6, sequence (A4D2P6 272-370): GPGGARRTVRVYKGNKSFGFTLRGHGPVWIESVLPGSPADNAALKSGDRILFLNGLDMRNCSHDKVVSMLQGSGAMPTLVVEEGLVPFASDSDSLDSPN

[14] = target: T5, MPP7, Q5T2T1
[15] = target: T6, TX1BP3, O14907
[16] = target: T7, GRIP1_7, Q9Y3R0
[17] = target: T8, MPDZ_5, O75970
[18] = target: DLG2_2, Q15700
[19] = target: PDZRN4_1, Q6ZMN7
PDZRN4_1, Q6ZMN7, sequence (Q6ZMN7 213-318): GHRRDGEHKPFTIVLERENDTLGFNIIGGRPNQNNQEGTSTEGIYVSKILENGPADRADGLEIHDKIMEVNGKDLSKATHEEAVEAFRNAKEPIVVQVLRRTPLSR

[20] = target: T9, LRRC7, Q96NW7
[21] = target: T10, GRIP1_3, Q9Y3R0
[22] = target: T11, NHERF3_4, Q5T2W1
[23] = target: DLG1_2, Q12959
DLG1_2, Q12959, sequence (Q12959 314-412): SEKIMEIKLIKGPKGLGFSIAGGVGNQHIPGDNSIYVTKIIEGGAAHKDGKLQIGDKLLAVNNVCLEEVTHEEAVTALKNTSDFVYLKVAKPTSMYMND

[24] = target: HTRA1, Q92743
HTRA1, Q92743, sequence (Q92743 360-477): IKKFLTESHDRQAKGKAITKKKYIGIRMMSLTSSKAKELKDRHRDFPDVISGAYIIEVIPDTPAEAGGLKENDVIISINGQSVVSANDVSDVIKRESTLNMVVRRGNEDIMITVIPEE

[25] = target: T12, SNTA1, Q13424

Row | Binder | pKd [1] | pKd [2] | pKd [3] | pKd [4] | pKd [5] | pKd [6] | pKd [7] | pKd [8] | pKd [9] | pKd [10] | pKd [11] | pKd [12] | pKd [13] | pKd [14] | pKd [15] | pKd [16] | pKd [17] | pKd [18] | pKd [19] | pKd [20] | also measured
1 | LPHGHSTTRV [NLGN4X, Q8N0W4] | below the threshold | 3.91 | 4.04 | 4.1 | 3.9 | 4.7 | 4.42 | below the threshold | below the threshold | below the threshold | below the threshold | below the threshold | 3.84 | below the threshold | below the threshold | below the threshold | below the threshold | 3.74 | below the threshold | below the threshold | pKd [21]: below the threshold; pKd [22]: 3.85; pKd [23]: 4.04; pKd [24]: 3.72; pKd [25]: 4.05
2 | YYKRPVQEWV [MMP24, Q9Y5R2] | below the threshold | 4.09 | below the threshold | below the threshold | 3.91 | below the threshold | 3.7 | 4.32 | 4.47 | below the threshold | below the threshold | below the threshold | 3.89 | below the threshold | 3.87 | 3.71 | 4.03 | 3.62 | below the threshold | 4.03 | pKd [21]: below the threshold; pKd [22]: below the threshold; pKd [23]: 3.99; pKd [24]: 4.5; pKd [25]: below the threshold
3 | SKSNFGSEPL [KIF17, Q9P2E2] | below the threshold | below the threshold | below the threshold | below the threshold | below the threshold | 3.61 | below the threshold | below the threshold | below the threshold | below the threshold | below the threshold | below the threshold | below the threshold | below the threshold | 5.05 | below the threshold | below the threshold | below the threshold | below the threshold | below the threshold | pKd [21]: below the threshold; pKd [22]: below the threshold; pKd [23]: below the threshold; pKd [24]: below the threshold; pKd [25]: below the threshold
4 | DTTVPESEDL [MYOZ2, Q9NPC6] | below the threshold | below the threshold | below the threshold | below the threshold | below the threshold | 4.21 | below the threshold | below the threshold | below the threshold | below the threshold | below the threshold | below the threshold | below the threshold | below the threshold | below the threshold | below the threshold | below the threshold | below the threshold | below the threshold | below the threshold | pKd [21]: below the threshold; pKd [22]: below the threshold; pKd [23]: below the threshold; pKd [24]: below the threshold; pKd [25]: below the threshold
5 | PDGQCTVTEV [RNF146, Q9NTX7] | below the threshold | 4.38 | 4.68 | 3.94 | 4.75 | 4.8 | 3.68 | 3.56 | below the threshold | below the threshold | below the threshold | below the threshold | 4.17 | below the threshold | 4.78 | 3.51 | below the threshold | 4.9 | below the threshold | 3.89 | pKd [21]: below the threshold; pKd [22]: below the threshold; pKd [23]: 5.3; pKd [24]: 5.05; pKd [25]: 4.23
6 | SAKVRTVTSV [RASL11B, Q9BPW5] | below the threshold | 4.19 | 3.83 | 4.25 | 4.95 | 4.77 | 5 | below the threshold | below the threshold | below the threshold | below the threshold | below the threshold | 4.2 | below the threshold | 4.53 | below the threshold | below the threshold | 4.79 | below the threshold | below the threshold | pKd [21]: below the threshold; pKd [22]: below the threshold; pKd [23]: 5.21; pKd [24]: 3.95; pKd [25]: below the threshold
